Patent publication US20100150950A1, “HUMAN ANTIBODIES THAT BIND CD70 AND USES THEREOF” (Medarex, Inc., priority 2006, published 2010)

Experiments:
[1] = molecular target: T1, human CD70 expressed on the cell surface (human, UniProt P32970 1-193); assay: flow cytometry titration on A498 cells, PE anti-human IgG
T1 construct: also called full length CD70 on transfected CHO cells
T1 sequence: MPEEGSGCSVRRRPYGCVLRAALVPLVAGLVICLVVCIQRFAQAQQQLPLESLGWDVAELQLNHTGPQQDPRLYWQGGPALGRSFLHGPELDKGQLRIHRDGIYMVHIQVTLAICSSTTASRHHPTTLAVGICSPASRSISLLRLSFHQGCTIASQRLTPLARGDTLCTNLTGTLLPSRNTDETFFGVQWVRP
Experimental: (§1) Binding of the anti-CD70 human monoclonal antibodies was assessed by incubating 5×10⁵ cells with antibody at a starting concentration of 50 μg/ml and serially diluting the antibody at a 1:3 dilution. The cells were washed and binding was detected with a PE-labeled anti-human IgG Ab. Flow cytometric analyses were performed using a FACSCalibur flow cytometry (Becton Dickinson, San Jose, Calif.).

[2] = molecular target: T1, human CD70 expressed on the cell surface; assay: flow cytometry titration on 786-O cells, PE anti-human IgG
Experimental: as §1

[3] = molecular target: T2, recombinant human CD70 fused with a dual myc-His tag (human, UniProt P32970 39-193); assay: ELISA on plate-coated recombinant myc-tagged CD70, anti-human IgG-HRP detection
T2 construct: also called recombinant myc-tagged CD70; CD70-myc-his; not shown: dual myc-His tag
T2 sequence: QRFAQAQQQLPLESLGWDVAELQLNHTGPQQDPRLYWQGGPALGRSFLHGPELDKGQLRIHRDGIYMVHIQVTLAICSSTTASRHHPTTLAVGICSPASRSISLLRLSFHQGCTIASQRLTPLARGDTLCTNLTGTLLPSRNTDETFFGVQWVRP
Experimental: Standard ELISA procedures were performed. The anti-CD70 human monoclonal antibodies were added at a concentration of 1 μg/ml and titrated down at 1:2 serial dilutions. Goat-anti-human IgG (Fc or kappa chain-specific) polyclonal antibody conjugated with horseradish peroxidase (HRP) was used as secondary antibody.

[4] = molecular target: T1, human CD70 expressed on the cell surface; assay: Scatchard analysis, 125I-labelled antibody on CHO cells transfected with full length CD70
Experimental: CHO cells were transfected with full length CD70 using standard techniques and grown in RPMI media containing 10% fetal bovine serum (FBS). The cells were trypsinized and washed once in Tris based binding buffer (24 mM Tris pH 7.2, 137 mM NaCl, 2.7 mM KCl, 2 mM Glucose, 1 mM CaCl₂, 1 mM MgCl₂, 0.1% BSA) and the cells were adjusted to 2×10⁶ cells/ml in binding buffer. Millipore plates (MAFB NOB) were coated with 1% nonfat dry milk in water and stored a 4° C. overnight. The plates were washed three times with 0.2 ml of binding buffer. Fifty microliters of buffer alone was added to the maximum binding wells (total binding). Twenty-five microliters of buffer alone was added to the control wells (non-specific binding). […] Varying concentrations of unlabeled antibody at 100 fold excess was added in a volume of 25 μl to control wells and 25 μl of CD70 transfected CHO cells (2×10⁶ cells/ml) in binding buffer were added to all wells. The plates were incubated for 2 hours at 200 RPM on a shaker at 4° C. At the completion of the incubation the Millipore plates were washed three times with 0.2 ml of cold wash buffer (24 mM Tris pH 7.2, 500 mM NaCl, 2.7 mM KCl, 2 mM Glucose, 1 mM CaCl₂, 1 mM MgCl₂, 0.1% BSA.). The filters were removed and counted in a gamma counter. Evaluation of equilibrium binding was performed using single site binding parameters with the Prism software (San Diego, Calif.).

[5] = molecular target: T1, human CD70 expressed on the cell surface; assay: flow cytometry on Granta 519 cells, MFI
Experimental: as §1, with “dilution. An isotype control antibody was used as a negative control.” for “dilution.”

[6] = molecular target: T1, human CD70 expressed on the cell surface; assay: cell-based or functional assay
[7] = molecular target: T1, human CD70 expressed on the cell surface; assay: flow cytometry on Raji cells, MFI
Experimental: as §1, with “dilution. An isotype control antibody was used as a negative control.” for “dilution.”

[8] = molecular target: T3, CD70 (Homo sapiens, UniProt P32970); assay: Epitope binding experiments using BIAcore
T3 sequence (P32970 1-193): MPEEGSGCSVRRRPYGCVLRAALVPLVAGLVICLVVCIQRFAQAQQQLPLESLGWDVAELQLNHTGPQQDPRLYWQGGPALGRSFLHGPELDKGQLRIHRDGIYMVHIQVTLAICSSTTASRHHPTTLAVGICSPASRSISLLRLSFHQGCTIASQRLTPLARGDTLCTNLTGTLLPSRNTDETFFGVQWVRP
Experimental: Such cross-competing antibodies can be identified based on their ability to cross-compete with 2H5, 10B4, 8B5, 18E7, 69A7, 69A7Y or 1F4 in standard CD70 binding assays. For example, standard ELISA assays can be used in which a recombinant human CD70 protein is immobilized on the plate, one of the antibodies is fluorescently labeled and the ability of non-labeled antibodies to compete off the binding of the labeled antibody is evaluated. Additionally or alternatively, BIAcore analysis can be used to assess the ability of the antibodies to cross-compete.

[9] = molecular target: human CD16 (FcRγIII) on effector cells (human, UniProt P08637 17-254); assay: cell-based or functional assay
human CD16 (FcRγIII) on effector cells, sequence (P08637 17-254): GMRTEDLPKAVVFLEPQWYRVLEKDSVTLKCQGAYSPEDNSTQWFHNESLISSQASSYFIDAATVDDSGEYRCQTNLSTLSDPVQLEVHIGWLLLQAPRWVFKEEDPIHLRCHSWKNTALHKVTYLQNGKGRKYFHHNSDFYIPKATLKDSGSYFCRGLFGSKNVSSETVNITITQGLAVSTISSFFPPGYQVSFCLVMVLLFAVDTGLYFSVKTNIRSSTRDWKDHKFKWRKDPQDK

[10] = molecular target: T1, human CD70 expressed on the cell surface; assay: flow cytometry on 786-0 cells, goat F(ab')2 anti-human IgG(Fc)-PE
Experimental: The cells were incubated for 30 minutes on ice, washed twice in staining buffer and stained with Goat F(ab)′2-anti-human-IgG(Fc)-PE conjugate for 30 minutes. The cells were washed and resuspended in staining buffer for analysis by flow cytometry.

[11] = system: CD70-mediated CD27 signaling induced proliferation of human CD3+ T cells; assay: Functional blocking of CD70 costimulated T cell proliferation; type: cell-based; details: anti-CD3 (OKT3), CHO cells with mouse CD32 and human CD70, 3 days
From the text: This example describes the analysis and characterization of the functional blocking of CD70 costimulated T cell proliferation by anti-CD70 antibodies 1F4 IgG1, 1F4 IgG4, 2H5, 2H5 F(ab′)2 and 2H5 Fab.
Human CD3^+ T cells were isolated from cryopreserved PBMC using MACS CD3 Microbeads and then cultured at 2×10^6 cells/ml in RPMI-1640 complete media+10% heat inactivated FCS in the presence of Mitomycin C treated CHO cells stably transfected with both mouse CD32 and human CD70. Cells were stimulated with […] anti-CD3 (clone OKT3) for 3 days, 1 μCi/well of ^3H-Thymidine was added for 6 hours and the cells were harvested. Proliferation was measured as CPM incorporated by scintillation counting.

B1: anti-CD70 human monoclonal antibody 10B4 (antibody, V domains shown)
VH: QIQLVESGGGVVQPGRSLRLSCAASGFTFGYYAMHWVRQAPGKGLEWVAVISYDGSIKYYADSVKGRFTISRDNSKNTLYLQMNSLRAEDTAVYYCAREGPYSNYLDYWGQGTLVTVSS
VL: AIQLTQSPSSLSASVGDRVTITCRASQGISSALAWYQQKPGKAPKFLIYDASSLESGVPSRFSGSGSGTDFTLTISSLQPEDFATYYCQQFNSYPFTFGPGTKVDIK
notes: Human IgG from hybridoma
In the case of B1, the “EC50 (read off the curve)” value [1] is reported as roughly 4 nM, the “EC50 (read off the curve)” value [2] is reported as roughly 2 nM and the “EC50 (read off the curve)” value [3] is reported as roughly 0.05 µg/mL. The Kd [4] was roughly 1.6 nM.

B2: anti-CD70 human monoclonal antibody 8B5 (antibody, V domains shown)
VH: QVQLVESGGGVVQPGRSLRLSCATSGFTFSDYGMHWVRQAPGKGLEWVAVIWYDGSNKYYADSVKGRFTISRDNSKKTLSLQMNSLRAEDTAVYYCARDSIMVRGDYWGQGTLVTVSS
VL: DIQMTQSPSSLSASVGDRVTITCRASQGISSWLAWYQQKPEKAPKSLIYAASSLQSGVPSRFSGSGSGTDFTLTISSLQPEDFATYYCQQYNSYPLTFGGGTKVEIK
notes: Human IgG from hybridoma
With B2 the Kd [4] was roughly 5.1 nM.

B3: anti-CD70 human monoclonal antibody 18E7 (antibody, V domains shown)
VH: QVQLVESGGGVVQPGRSLRLSCAASGFTFSDHGMHWVRQAPGKGLEWVAVIWYDGSNKYYADSVKGRFTISRDNSKNTLYLQMNSLRAEDTAVYYCARDSIMVRGDYWGQGTLVTVSS
VL: DIQMTQSPSSLSASVGDRVTITCRASQGISSWLAWYQQKPEKAPKSLIYAASSLQSGVPSRFSGSGSGTDFTLTISSLQPEDFATYYCQQYNSYPLTFGGGTKVEIK
notes: Human IgG from hybridoma
With B3 the “EC50 (read off the curve)” value [2] was roughly 7 nM and the Kd [4] was roughly 1.5 nM.

B4: anti-CD70 human monoclonal antibody 2H5 (antibody, IgG1, V domains shown)
VH: QVQLVESGGGVVQPGRSLRLSCAASGFTFSSYIMHWVRQAPGKGLEWVAVISYDGRNKYYADSVKGRFTISRDNSKNTLYLQMNSLRAEDTAVYYCARDTDGYDFDYWGQGTLVTVSS
VL: EIVLTQSPATLSLSPGERATLSCRASQSVSSYLAWYQQKPGQAPRLLIYDASNRATGIPARFSGSGSGTDFTLTISSLEPEDFAVYYCQQRTNWPLTFGGGTKVEIK
notes: Human IgG with kappa light chain; also called HuMAb 2H5; 2H5 IgG1
B4 was tested, and the EC50 [5] was 1.33 nM, the “EC50 of decrease in ^3H-thymidine incorporation, Hum-Zap internalization assay on 786-O cells” value [6] was 0.9 nM and the “EC50 (read off the curve)” value [1] was roughly 8 nM. For the same molecule, the “EC50 (read off the curve)” value [2] was roughly 5 nM, the EC50 [7] was 1.33 nM and the “EC50 (read off the curve)” value [3] was roughly 0.06 µg/mL. For the same molecule, the Kd [4] was roughly 2.1 nM.

B5: 69A7Y: same as 69A7 with C to Y mutation at VH position 100; VH SEQ ID NO:73, VL SEQ ID NO:11 (antibody, listed as Homo sapiens, V domains shown)
VH: QVQLQESGPGLVKPSETLSLTCTVSGGSVSSDYYYWSWIRQPPGKGLEWLGYIYYSGSTNYNPSLKSRVTISVDTSKNQFSLKLRSVTTADTAVYYCARGDGDYGGNYFDYWGQGTLVTVSS
VL: EIVLTQSPATLSLSPGERATLSCRASQSVSSYLAWYQQKPGQAPRLLIFDASNRATGIPARFSGSGSGTDFTLTISSLEPEDFAVYYCQQRSNWPLTFGGGTKVEIK
B5 was tested, and the “epitope on CD70” value [8] was “distinct epitopes”.

B6: nonfucosylated anti-CD70 human monoclonal antibody 2H5 (antibody, V domains shown)
VH: QVQLVESGGGVVQPGRSLRLSCAASGFTFSSYIMHWVRQAPGKGLEWVAVISYDGRNKYYADSVKGRFTISRDNSKNTLYLQMNSLRAEDTAVYYCARDTDGYDFDYWGQGTLVTVSS
VL: EIVLTQSPATLSLSPGERATLSCRASQSVSSYLAWYQQKPGQAPRLLIYDASNRATGIPARFSGSGSGTDFTLTISSLEPEDFAVYYCQQRTNWPLTFGGGTKVEIK
notes: also called 2H5 NF; 2H5nf
For B6, the “amount of anti-CD16 antibody 3G8 needed to reverse the inhibition of peptide specific CD8+ T cell expansion, against 2H5” value [9] was roughly 1000 fold, the “potency in lysis of activated human B cells against 2H5, ^51Cr-release ADCC assay with anti-CD16 antibody 3G8” value [9] was roughly 10 fold and the “EC50 (read off the curve)” value [10] was roughly 0.2 µg/mL.

B7: 2H5 F(ab′)2: F(ab′)2 fragment of anti-CD70 antibody 2H5 (antibody, V domains shown)
VH: QVQLVESGGGVVQPGRSLRLSCAASGFTFSSYIMHWVRQAPGKGLEWVAVISYDGRNKYYADSVKGRFTISRDNSKNTLYLQMNSLRAEDTAVYYCARDTDGYDFDYWGQGTLVTVSS
VL: EIVLTQSPATLSLSPGERATLSCRASQSVSSYLAWYQQKPGQAPRLLIYDASNRATGIPARFSGSGSGTDFTLTISSLEPEDFAVYYCQQRTNWPLTFGGGTKVEIK
With B7 the “functional blocking of CD70 costimulated T cell proliferation” value [11] was “reduced functional blocking efficacy”.

B8: 2H5 Fab: Fab fragment of anti-CD70 antibody 2H5 (antibody, V domains shown)
VH: QVQLVESGGGVVQPGRSLRLSCAASGFTFSSYIMHWVRQAPGKGLEWVAVISYDGRNKYYADSVKGRFTISRDNSKNTLYLQMNSLRAEDTAVYYCARDTDGYDFDYWGQGTLVTVSS
VL: EIVLTQSPATLSLSPGERATLSCRASQSVSSYLAWYQQKPGQAPRLLIYDASNRATGIPARFSGSGSGTDFTLTISSLEPEDFAVYYCQQRTNWPLTFGGGTKVEIK
For B8, the “functional blocking of CD70 costimulated T cell proliferation” value [11] was “complete lack of functional blocking activity”.
